Here are results for one molecule from article PMC11076521.

In this experiment the target is MYC-tagged FTL wild type, P02792. The experiment is described as follows: co-IP; HeLa-FTH1 KO cells; anti-MYC IP of MYC-FTH1/FTL, immunoblot; 50 mM Tris-HCl pH 7.5, 150 mM NaCl, 0.5% Nonidet P40, 1 mM DTT; quantified relative to FTH1-WT, normalized to immunoprecipitated FTH1/FTL and NCOA4 input. Conditions: remark: other sources report otherwise.
MYC-tagged FTL wild type, P02792, sequence (P02792 whole entry): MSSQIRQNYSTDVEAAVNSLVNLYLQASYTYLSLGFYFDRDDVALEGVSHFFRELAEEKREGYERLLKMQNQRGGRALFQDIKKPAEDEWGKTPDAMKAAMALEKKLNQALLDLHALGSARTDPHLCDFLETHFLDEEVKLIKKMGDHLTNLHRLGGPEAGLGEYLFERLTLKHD

B1: C-terminally HA-FLAG-tagged NCOA4, Q13772 1-614 (natural protein)
chain: MNTFQDQSGSSSNREPLLRCSDARRDLELAIGGVLRAEQQIKDNLREVKAQIHSCISRHLECLRSREVWLYEQVDLIYQLKEETLQQQAQQLYSLLGQFNCLTHQLECTQNKDLANQVSVCLERLGSLTLKPEDSTVLLFEADTITLRQTITTFGSLKTIQIPEHLMAHASSANIGPFLEKRGCISMPEQKSASGIVAVPFSEWLLGSKPASGYQAPYIPSTDPQDWLTQKQTLENSQTSSRACNFFNNVGGNLKGLENWLLKSEKSSYQKCNSHSTTSSFSIEMEKVGDQELPDQDEMDLSDWLVTPQESHKLRKPENGSRETSEKFKLLFQSYNVNDWLVKTDSCTNCQGNQPKGVEIENLGNLKCLNDHLEAKKPLSTPSMVTEDWLVQNHQDPCKVEEVCRANEPCTSFAECVCDENCEKEALYKWLLKKEGKDKNGMPVEPKPEPEKHKDSLNMWLCPRKEVIEQTKAPKAMTPSRIADSFQVIKNSPLSEWLIRPPYKEGSPKEVPGTEDRAGKQKFKSPMNTSWCSFNTADWVLPGKKMGNLSQLSSGEDKWLLRKKAQEVLLNSPLQEEHNFPPDHYGLPAVCDLFACMQLKVDKEKWLYRTPLQM
Turning to B1, the relative interaction by immunoprecipitation (% of FTH1-WT) came to 14%.
